Residue numbers refer to the chain shown, from its start. Names may count otherwise. Each block holds one binder with its values, some of them ahead of it.
Molecular target: T1, GST-tagged Sac1 (residues 2-460) (Saccharomyces cerevisiae, UniProt P32368 2-460)
T1 sequence (looked up): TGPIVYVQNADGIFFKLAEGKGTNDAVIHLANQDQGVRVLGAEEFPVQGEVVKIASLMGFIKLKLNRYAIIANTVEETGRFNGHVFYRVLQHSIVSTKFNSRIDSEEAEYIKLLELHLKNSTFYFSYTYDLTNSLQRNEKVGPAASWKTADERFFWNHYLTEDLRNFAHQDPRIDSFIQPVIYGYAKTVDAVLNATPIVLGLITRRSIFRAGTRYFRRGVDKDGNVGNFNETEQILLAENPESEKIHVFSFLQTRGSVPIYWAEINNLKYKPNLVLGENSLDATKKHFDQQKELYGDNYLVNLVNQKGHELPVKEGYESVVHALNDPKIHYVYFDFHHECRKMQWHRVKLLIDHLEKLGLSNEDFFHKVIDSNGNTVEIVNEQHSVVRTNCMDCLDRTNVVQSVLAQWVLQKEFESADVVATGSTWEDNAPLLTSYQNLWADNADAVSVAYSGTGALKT
Assay: pull-down

- binding result: binds
B1: Vps74 (residues 46-345) (domain or fragment, Saccharomyces cerevisiae, UniProt Q06385 46-345, looked up)
chain: NKKIAYDPEESKLRDNINIPTLTLMEEVLLMGLRDREGYLSFWNDSISYALRGCIIIELALRGKIRILDDSARKRFDLSERLIEVIDSSKTGEVLLDETLQLMKNDEPLSISNWIDLLSGETWNLLKINYQLKQVRERLAKGLVDKGVLRTEMKNFFLFDMATHPIADASCKEAIKRRVLSVLVSRNMELSYNEYFPETTSFKIIRTLALICGSYGANVLENVLTTLEYEKRDKAISRAEEIMAQFSQYPFDLEKETELGVSVNLNKEVKEEIENNPGHDLQLEVIAGVFEVFSRMDMLL

- binding result: binds
B2: Vps74 (Y260S, N263S, E266S, Y274S, and D278S) (domain or fragment, Saccharomyces cerevisiae, UniProt Q06385 46-345, looked up)
chain: B1 chain with Y215S, N218S, E221S, Y229S, D233S
